In patent US20250136677A1 (ZOETIS SERVICES, published 2025):
Read-outs that look alike come from different tables or passages of the source.

B1: A03 (antibody, V domains shown)
VH: QVLLVQSGAEVRTPGASVKIFCKASGYSFTSYTIHWLRQAPAQGLEWMGNINPTSGYTENNQRFKDRLTLTADTSTNTAYMELSSLRSADTAMYYCARWGFKYDGEWSFDVWGAGTTVTVSS
VL: EIQMTQSPSSLSASPGDRVTITCRASQAISIWLSWYQQKPGNIPKVLINKASNLHIGVPSRFSGSGSGTDFTLTISSLEPEDAATYYCLQSQTYPLTFGGGTKLEIK
notes: sample ID reads A03 although it stands between A07 and A09
B2: A10 (antibody, V domains shown)
VH: QVLLVQSGAEVRTPGASVKIFCKASGYSFTSYTIHWLRQAPAQGLEWMGNINPTSGYTENNQRFKDRLTLTADTSTNTAYMELSSLRSADTAMYYCARWGFKYDGEWSFDVWGAGTTVTVSS
VL: EIQMTQSPSSLSASPGDRVTITCRASQGIAIWLSWYQQKPGNIPKVLINKASNLHIGVPSRFSGSGSGTDFTLTISSLEPEDAATYYCLQSQTYPLTFGGGTKLEIK
B3: A18 (antibody, V domains shown)
VH: QVLLVQSGAEVRTPGASVKIFCKASGYSFTSYTIHWLRQAPAQGLEWMGNINPTSGYTENNQRFKDRLTLTADTSTNTAYMELSSLRSADTAMYYCARWGFKYDGEWSFDVWGAGTTVTVSS
VL: EIQMTQSPSSLSASPGDRVTITCRASQGISIWLSWYQQKPGNIPKVLINKASNAHIGVPSRFSGSGSGTDFTLTISSLEPEDAATYYCLQSQTYPLTFGGGTKLEIK
B4: A58 (antibody, V domains shown)
VH: QVLLVQSGAEVRTPGASVKIFCKASGYSFTSYTIHWLRQAPAQGLEWMGNINPTSGYTENNQRFKDRLTLTADTSTNTAYMELSSLRSADTAMYYCARWGFKYDAEWSFDVWGAGTTVTVSS
VL: EIQMTQSPSSLSASPGDRVTITCRASQGISIWLSWYQQKPGNIPKVLINKASNLHIGVPSRFSGSGSGTDFTLTISSLEPEDAATYYCLQSQTYPLTFGGGTKLEIK
B5: A15 (antibody, V domains shown)
VH: QVLLVQSGAEVRTPGASVKIFCKASGYSFTSYTIHWLRQAPAQGLEWMGNINPTSGYTENNQRFKDRLTLTADTSTNTAYMELSSLRSADTAMYYCARWGFKYDGEWSFDVWGAGTTVTVSS
VL: EIQMTQSPSSLSASPGDRVTITCRASQGISIWLSWYQQKPGNIPKVLINAASNLHIGVPSRFSGSGSGTDFTLTISSLEPEDAATYYCLQSQTYPLTFGGGTKLEIK
B6: A12 (antibody, V domains shown)
VH: QVLLVQSGAEVRTPGASVKIFCKASGYSFTSYTIHWLRQAPAQGLEWMGNINPTSGYTENNQRFKDRLTLTADTSTNTAYMELSSLRSADTAMYYCARWGFKYDGEWSFDVWGAGTTVTVSS
VL: EIQMTQSPSSLSASPGDRVTITCRASQGISAWLSWYQQKPGNIPKVLINKASNLHIGVPSRFSGSGSGTDFTLTISSLEPEDAATYYCLQSQTYPLTFGGGTKLEIK
B7: A65 (antibody, V domains shown)
VH: QVLLVQSGAEVRTPGASVKIFCKASGYSFTSYTIHWLRQAPAQGLEWMGNINPTSGYTENNQRFKDRLTLTADTSTNTAYMELSSLRSADTAMYYCARWGFKYDGEWSFDAWGAGTTVTVSS
VL: EIQMTQSPSSLSASPGDRVTITCRASQGISIWLSWYQQKPGNIPKVLINKASNLHIGVPSRFSGSGSGTDFTLTISSLEPEDAATYYCLQSQTYPLTFGGGTKLEIK
B8: A06 (antibody, V domains shown)
VH: QVLLVQSGAEVRTPGASVKIFCKASGYSFTSYTIHWLRQAPAQGLEWMGNINPTSGYTENNQRFKDRLTLTADTSTNTAYMELSSLRSADTAMYYCARWGFKYDGEWSFDVWGAGTTVTVSS
VL: EIQMTQSPSSLSASPGDRVTITCRAAQGISIWLSWYQQKPGNIPKVLINKASNLHIGVPSRFSGSGSGTDFTLTISSLEPEDAATYYCLQSQTYPLTFGGGTKLEIK
B9: A16 (antibody, V domains shown)
VH: QVLLVQSGAEVRTPGASVKIFCKASGYSFTSYTIHWLRQAPAQGLEWMGNINPTSGYTENNQRFKDRLTLTADTSTNTAYMELSSLRSADTAMYYCARWGFKYDGEWSFDVWGAGTTVTVSS
VL: EIQMTQSPSSLSASPGDRVTITCRASQGISIWLSWYQQKPGNIPKVLINKAANLHIGVPSRFSGSGSGTDFTLTISSLEPEDAATYYCLQSQTYPLTFGGGTKLEIK
B10: A07 (antibody, V domains shown)
VH: QVLLVQSGAEVRTPGASVKIFCKASGYSFTSYTIHWLRQAPAQGLEWMGNINPTSGYTENNQRFKDRLTLTADTSTNTAYMELSSLRSADTAMYYCARWGFKYDGEWSFDVWGAGTTVTVSS
VL: EIQMTQSPSSLSASPGDRVTITCRASAGISIWLSWYQQKPGNIPKVLINKASNLHIGVPSRFSGSGSGTDFTLTISSLEPEDAATYYCLQSQTYPLTFGGGTKLEIK
B11: A63 (antibody, V domains shown)
VH: QVLLVQSGAEVRTPGASVKIFCKASGYSFTSYTIHWLRQAPAQGLEWMGNINPTSGYTENNQRFKDRLTLTADTSTNTAYMELSSLRSADTAMYYCARWGFKYDGEWSADVWGAGTTVTVSS
VL: EIQMTQSPSSLSASPGDRVTITCRASQGISIWLSWYQQKPGNIPKVLINKASNLHIGVPSRFSGSGSGTDFTLTISSLEPEDAATYYCLQSQTYPLTFGGGTKLEIK
B12: A64 (antibody, V domains shown)
VH: QVLLVQSGAEVRTPGASVKIFCKASGYSFTSYTIHWLRQAPAQGLEWMGNINPTSGYTENNQRFKDRLTLTADTSTNTAYMELSSLRSADTAMYYCARWGFKYDGEWSFAVWGAGTTVTVSS
VL: EIQMTQSPSSLSASPGDRVTITCRASQGISIWLSWYQQKPGNIPKVLINKASNLHIGVPSRFSGSGSGTDFTLTISSLEPEDAATYYCLQSQTYPLTFGGGTKLEIK
B13: A62 (antibody, V domains shown)
VH: QVLLVQSGAEVRTPGASVKIFCKASGYSFTSYTIHWLRQAPAQGLEWMGNINPTSGYTENNQRFKDRLTLTADTSTNTAYMELSSLRSADTAMYYCARWGFKYDGEWAFDVWGAGTTVTVSS
VL: EIQMTQSPSSLSASPGDRVTITCRASQGISIWLSWYQQKPGNIPKVLINKASNLHIGVPSRFSGSGSGTDFTLTISSLEPEDAATYYCLQSQTYPLTFGGGTKLEIK
B14: A09 (antibody, V domains shown)
VH: QVLLVQSGAEVRTPGASVKIFCKASGYSFTSYTIHWLRQAPAQGLEWMGNINPTSGYTENNQRFKDRLTLTADTSTNTAYMELSSLRSADTAMYYCARWGFKYDGEWSFDVWGAGTTVTVSS
VL: EIQMTQSPSSLSASPGDRVTITCRASQGASIWLSWYQQKPGNIPKVLINKASNLHIGVPSRFSGSGSGTDFTLTISSLEPEDAATYYCLQSQTYPLTFGGGTKLEIK
B15: A13 (antibody, V domains shown)
VH: QVLLVQSGAEVRTPGASVKIFCKASGYSFTSYTIHWLRQAPAQGLEWMGNINPTSGYTENNQRFKDRLTLTADTSTNTAYMELSSLRSADTAMYYCARWGFKYDGEWSFDVWGAGTTVTVSS
VL: EIQMTQSPSSLSASPGDRVTITCRASQGISIALSWYQQKPGNIPKVLINKASNLHIGVPSRFSGSGSGTDFTLTISSLEPEDAATYYCLQSQTYPLTFGGGTKLEIK
B16: A60 (antibody, V domains shown)
VH: QVLLVQSGAEVRTPGASVKIFCKASGYSFTSYTIHWLRQAPAQGLEWMGNINPTSGYTENNQRFKDRLTLTADTSTNTAYMELSSLRSADTAMYYCARWGFKYDGEASFDVWGAGTTVTVSS
VL: EIQMTQSPSSLSASPGDRVTITCRASQGISIWLSWYQQKPGNIPKVLINKASNLHIGVPSRFSGSGSGTDFTLTISSLEPEDAATYYCLQSQTYPLTFGGGTKLEIK
B17: A05 (antibody, V domains shown)
VH: QVLLVQSGAEVRTPGASVKIFCKASGYSFTSYTIHWLRQAPAQGLEWMGNINPTSGYTENNQRFKDRLTLTADTSTNTAYMELSSLRSADTAMYYCARWGFKYDGEWSFDVWGAGTTVTVSS
VL: EIQMTQSPSSLSASPGDRVTITCAASQGISIWLSWYQQKPGNIPKVLINKASNLHIGVPSRFSGSGSGTDFTLTISSLEPEDAATYYCLQSQTYPLTFGGGTKLEIK

Experiments:
[1] = target: T1, wildtype feline IL-31 protein (Feline_IL31_wildtype) (feline); assay: cell-based or functional assay
T1 chain: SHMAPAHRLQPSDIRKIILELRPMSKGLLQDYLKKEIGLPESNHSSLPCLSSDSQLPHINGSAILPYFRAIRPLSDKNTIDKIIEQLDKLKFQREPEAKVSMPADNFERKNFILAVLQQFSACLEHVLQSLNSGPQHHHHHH

[2] = target: T1, wildtype feline IL-31 protein …; assay: Biacore, feline IL-31 chip, mAb 100 nM, share of points within parent mean +/-3 SD; parameters: key: % of mutant data points within parent mAb mean ±3 SD
Source text: The region of an antibody responsible for antigen recognition represents the paratope. A paratope is created by a combination of amino acids in the complementarity determining regions (CDRs) of both the heavy and light chain variable regions. The binding between antibody and antigen is often mediated by side chains of CDR residues with side chains or carbohydrate moieties of the antigen. To help define critical side chains involved in antibody recognition alanine scanning mutagenesis was performed on each CDR residue in both the heavy and light chain. These mutants were then individually tested for the ability to bind feline IL-31 using the biacore and evaluated for inhibition of IL-31-mediated signaling in the FCWF-4 cell based assay.
(§1) The mean response unit of four replicates of the parent mAb+/−3 standard deviations was used to generate parameters to define a threshold of response units comprising both the on- and off-rates antibody binding (FIG. 22). The percentage of data points for each mutant fell within this threshold was then used to define a “% similarity score” (FIG. 23).

[3] = target: T1, wildtype feline IL-31 protein …; assay: cell-based or functional assay
[4] = target: T1, wildtype feline IL-31 protein …; assay: Biacore, feline IL-31 chip, mAb 100 nM, share of points within parent mean +/-3 SD; parameters: key: % of mutant data points within parent mAb mean ±3 SD
Source text: as §1

Binder	% Inhibition Relative to Parent (pSTAT, FCWF-4 cells) [1] [%]	Binding Similarity score [2]	% Inhibition Relative to Parent (pSTAT, FCWF-4 cells) [3] [%]	Binding Similarity score [4]
B1	52.9	58	–	–
B2	26	63.4	–	–
B3	49.4	100	–	–
B4	–	–	15.3	16.7
B5	34.1	11.6	–	–
B6	19.3	25.7	–	–
B7	–	–	26.8	50.5
B8	40	89.7	–	–
B9	69.3	58	–	–
B10	93.6	74.4	–	–
B11	–	–	-6	2.9
B12	–	–	6.9	2.7
B13	–	–	22.6	46.1
B14	28	100	–	–
B15	4.4	2.4	–	–
B16	–	–	-8.7	2.4
B17	0	25.6	–	–
